{"source": "paper PMC4669970", "about": "(Biochemical pharmacology, 2015)", "key": {"[1]": {"settings": "humans; cited from earlier work"}, "[2]": {"settings": "rats; cited from earlier work"}, "[3]": {"test": "Tissue distribution of [^3H]-ghrelin after i.v. bolus in DFP-pretreated mice", "settings": "as E30"}, "human BChE": {"target": "human BChE (Homo sapiens, UniProt P06276)", "sequence (P06276 29-602)": "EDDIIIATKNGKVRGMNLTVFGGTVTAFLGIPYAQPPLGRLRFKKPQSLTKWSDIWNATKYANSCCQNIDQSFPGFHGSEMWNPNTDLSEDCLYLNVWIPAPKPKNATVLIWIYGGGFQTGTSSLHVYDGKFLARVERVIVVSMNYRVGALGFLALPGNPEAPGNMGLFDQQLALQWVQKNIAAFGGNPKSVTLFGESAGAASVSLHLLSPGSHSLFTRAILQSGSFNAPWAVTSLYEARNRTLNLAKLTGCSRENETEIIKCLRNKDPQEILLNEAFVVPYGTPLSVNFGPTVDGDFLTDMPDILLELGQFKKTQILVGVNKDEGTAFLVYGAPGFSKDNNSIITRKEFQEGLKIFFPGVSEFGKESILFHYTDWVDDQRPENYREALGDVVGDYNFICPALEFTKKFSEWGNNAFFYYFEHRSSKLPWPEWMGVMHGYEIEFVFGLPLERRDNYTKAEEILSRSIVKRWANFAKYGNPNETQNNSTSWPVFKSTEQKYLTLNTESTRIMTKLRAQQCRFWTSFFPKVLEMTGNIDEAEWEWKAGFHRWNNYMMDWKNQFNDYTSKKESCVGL", "test": "Inhibition of BChE-catalysed ghrelin hydrolysis by BChE-specific inhibitors", "type": "biochemical", "settings": "parallel assays, modest concentrations of inhibitor"}}, "note": "Like-named read-outs stand apart in the source and are kept apart here. No end group written: not given here."}
{"compound": "ghrelin (GSS((3H)n‑octanoyl)FLSPEHQRVQQRKESKKPPAKLQPR; also: tritium label on the octanoyl group (tracer form); UniProt Q9UBU3 24-51, looked up)", "values": [{"measurement": "circulating half-life", "setting": "[1]", "result": "8 to 13", "unit": "min"}, {"measurement": "circulating half-life", "setting": "[2]", "result": 8, "unit": "min"}, {"measurement": "time of peak concentration in liver", "setting": "[3]", "result": 6, "unit": "min"}, {"measurement": "time of peak concentration in pancreas", "setting": "[3]", "result": 12, "unit": "min"}, {"measurement": "time of peak concentration in spleen", "setting": "[3]", "result": 12, "unit": "min"}]}
{"compound": "CCN(CC)C(C)CN1c2ccccc2Sc2ccccc21", "note": "(stereo not drawn) [ethopropazine]", "values": [{"measurement": "effect on BChE ghrelin hydrolysis reactions", "setting": "human BChE", "result": "stopped those reactions completely"}]}
